# Values quoted from earlier work, collected in publication PMC8777194.
# pKd: −log10 of the molar value.
# Biological target: Leader protein L L (Encephalomyocarditis virus) (UniProt P03304)
substance,measurement,value
2A protein 2A (from UniProt P03304),pKd,5.82
